One protein from patent US20140234321 can be followed below.

B1: Hunk (Hormonally Up-regulated, Neu-Tumor-Associated Kinase), mouse, 714-amino-acid ~80-kDa polypeptide (protein)
chain: MPAAAGDGLLGEPAAPGGDGGAEDTTRPAAACEGSFLPAWVSGVSRERLRDFQHHKRVGNYLIGSRKLGEGSFAKVREGLHVLTGEKVAIKVIDKKRAKKDTYVTKNLRREGQIQQMIRHPNITQLLDILETENSYYLVMELCPGGNLMHKIYEKKRLDEAEARRYIRQLISAVEHLHRAGVVHRDLKIENLLLDEDNNIKLIDFGLSNCAGILGYSDPFSTQCGSPAYAAPELLARKKYGPKIDVWSIGVNMYAMLTGTLPFTVEPFSLRALYQKMVDKAMNPLPTQLSTGAVNFLRSLLEPDPVKRPNIQQALANRWLNENYTGKVPCNVTYPNRISLEDLSPSVVLHMTEKLGYKNSDVINTVLSNRACHILAIYFLLNKKLERYLSGKSDIQDSICYKTQLYQIEKCRATKEPYEASLDTWTRDFEFHAVQDKKPKEQEKRGDFLHRPFSKKLDKNLPSHKQPSPSLITQLQSTKALLKDRKASKSGFPDKDSFVCRNLFRKTSDSNCVASSSMEFIPVPPPRTPRIVKKLEPHQPGPGSASILPKEEPLLLDMVRSFESVDREDHIELLSPSHHYRILSSPVSLARRNSSERTLSQGLLSGSTSPLQTPLHSTLVSFAHEEKNSPPKEEGVCSPPPVPSNGLLQPLGSPNCVKSRGRFPMMGIGQMLRKRHQSLQPSSERSLDASMSPLQPIAPSSLSFDMADGVKGQC
Consider B1, for which, in the series with myelin basic protein, the “in vitro kinase assay of Hunk immunoprecipitates with [gamma-32P]ATP” value was “Hunk immunoprecipitates were able to phosphorylate both histone H1 and MBP in vitro”. For the same protein, in the series with histone H1, the “in vitro kinase assay of Hunk immunoprecipitates with [gamma-32P]ATP” value is “Hunk immunoprecipitates were able to phosphorylate both histone H1 and MBP in vitro”; the “in vitro kinase assay of anti-Hunk immunoprecipitates with gamma-32P-ATP and histone H1” value is on record as “Hunk-associated kinase activity was substantially greater in immunoprecipitates prepared from transgenic when compared with wild type mammary glands”.
